Test results as given in paper PMC12474247.
“And” between values parts separate entries of the source, which are not always exact repeats. Equal entries are not always repeated.

Target: small hepatitis delta antigen with C-terminal His6-tag (SHDAg-His6), native preparation (hepatitis D virus genotype 1)
Assay: SEC

Q: With “small hepatitis delta antigen with C-terminal His6-tag (SHDAg-His6), native preparation (natural protein)” as the substance, how does the stoichiometry N read?
A: 4 and 8
